The results in this text go back to US20250388696A1 (NAVIGO PROTEINS, published 2025).

Where no end group is shown, it is not given here.

The target in experiment [1] is T1, Her2-Fc (human, UniProt P04626 23-652).
T1 construct: Coated in ELISA
Put plainly: ELISA on coated Her2-Fc; after 24 h in mouse serum at 37 C. Here is the method: (§1) High binding plates (Greiner, 781061) were immobilized with 2.5 μg/ml hFAP-Fc or 1.2 μg/ml Her2-Fc over night at 4° C. Dilution series of 3 μM to 0.07 pM of fusion proteins with binding specifically to Her2 were incubated in 100% human serum or 100% mouse serum for 24 h at 37° C. Dilution series of 3 µM to 0.2 pM or 1 μM to 0.01 fM of fusion proteins with binding specifically to hFAP were incubated in 100% human serum or 100% mouse serum for 24 h at 37° C. ELISA-plates were washed three times with PBST (PBS+0.1% Tween) and blocked with 3% BSA/0.5% Tween/PBS up to 2 h at room temperature (rt). After preincubation for 0 h or 24 h in the presence of serum the dilution series were incubated on ELISA-plates for up to 1 h at rt. Wells were washed with PBST and incubated with biotinylated anti-ubiquitin-antibody (1:300) for up to 1 h at rt. The binding was visualized with Streptavidin-HRP (1:5.000).
(§2) The fusion proteins comprise the albumin binding domain (referred to as HED) and the targeting moiety.
(In general: In an ELISA, binding on a coated surface is turned into a signal by an enzyme label.)

Experiment [2] deals with T1, Her2-Fc. Put plainly: ELISA on coated Her2-Fc; 24 h in mouse serum at 37 C. The method, then: as §1, §2
The target in experiment [3] is T1, Her2-Fc. Put plainly: ELISA on coated Her2-Fc; after 24 h in human serum at 37 C. Here is the method: as §1, §2
In experiment [4] the target is T1, Her2-Fc. The experiment in a line: ELISA on coated Her2-Fc; 0 h in human serum. The method, then:
as §1, §2

Experiment [5] addresses T1, Her2-Fc. The experiment in a line: ELISA on coated Her2-Fc; 0 h in mouse serum. Here is the method: as §1, §2
Experiment [6] has as its target T1, Her2-Fc. The experiment in a line: ELISA on coated Her2-Fc; KD 24 h against KD 0 h, human serum. The method, then: as §1, §2
For experiment [7], the target named is T2, Her2 expressed on Sk-Br-3 cells (human, UniProt P04626 23-1255).
T2 construct: whole, on cells; also called human epidermal growth factor receptor 2
Put plainly: flow cytometry, dilution series on Sk-Br-3 cells. Here is the method: Her2 expressing Sk-Br-3-cells and HEK293-hFAP overexpressing cells were thawed, washed with medium containing FCS, subsequently washed with FACS blocking buffer (PBS/0.1% Sodium Azide/3% FCS) and 100 μl seeded in 96-well round bottom plates with a density of 1×10⁶ cells/ml. Dilution series from 10 µM to 8.6 fM (CID 217781, CID 217787) and a dilution series of 3 µM to 0.2 μM (CID 218466, CID 218467, 218512, CID 218513, CID 218514, CID 218515, CID 218516) were incubated on Her2-expressing Sk-Br-3-cells and dilution series from 1 μM to 0.07 μM of fusion proteins 218690 and 218702 were incubated on hFAP-overexpressing HEK293-cell line for 45 min at 4° C. After centrifugation the supernatants were removed and cells were washed with FACS blocking buffer and 100 μl/well rabbit anti-Strep-Tag antibody (GenScript; A00626), 1:300 diluted in FACS blocking buffer were added. After removal of the primary antibody goat anti-rabbit IgG Alexa Fluor 488 antibody (Invitrogen; A4008) was applied in a 1:1000 dilution in FACS blocking buffer. Flow cytometry measurement was conducted on the Guava easyCyte 5HT device from Merck-Millipore at excitation wavelength 488 nm and emission wavelength 525/30 nm. The * in table 2 refers to a fusion protein with the albumin binding domain as dimer (homo-dimer) and/or the targeting moiety as dimer.

Experiment [8] concerns the target T1, Her2-Fc. The experiment in a line: ELISA on coated Her2-Fc; KD 24 h against KD 0 h, mouse serum. Here is the method: as §1, §2
Experiment [9] addresses T3, Her2 (immobilised on the SPR chip) (human, UniProt P04626 23-652, limits assumed).
T3 construct: construct not described; also called human epidermal growth factor receptor 2
The experiment in a line: SPR, Her2 immobilised on the chip, pH 7.3, 1:1 Langmuir fit [continued]. The method, then: (§3) Recombinant protein A, HSA, MSA or target (either ED-B or Her2) was immobilized on a High Capacity Amine sensor chip (Bruker) after NHS/EDC activation with a Sierra SPR-32 system (Bruker). The chip was equilibrated with SPR running buffer (PBS 0.05%, Tween pH 7.3). Injection of ethanolamine after target immobilization was used to block free NHS groups. To determine the binding of fusion proteins to FAP, the Fc-tagged target was injected with 60 or 30 nM to Protein A coupled spots followed by the injection of fusion proteins.
(§4) Binding proteins were applied to the chip in serial dilutions with a flow rate of 30 μl/min. Upon binding, analyte accumulated on the surface increasing the refractive index. This change in the refractive index was measured in real time and plotted as response or resonance units versus time. The association was performed for 120 seconds and the dissociation for 180 seconds. After each run, the chip surface was regenerated with 30 μl regeneration buffer (10 mM glycine pH 2.0 or pH 1.5) and equilibrated with running buffer. Binding studies were carried out using the Sierra SPR-32 system (Bruker); data evaluation was operated via the Sierra Analyser software, provided by the manufacturer, by the use of the Langmuir 1:1 model (RI=0).
On the technique in general: Surface plasmon resonance follows binding to a sensor surface in real time, without labels.

The target in another experiment is T4, human serum albumin (human, UniProt P02768 25-609).
T4 construct: also called HSA
T4 sequence (P02768 25-609 limits assumed): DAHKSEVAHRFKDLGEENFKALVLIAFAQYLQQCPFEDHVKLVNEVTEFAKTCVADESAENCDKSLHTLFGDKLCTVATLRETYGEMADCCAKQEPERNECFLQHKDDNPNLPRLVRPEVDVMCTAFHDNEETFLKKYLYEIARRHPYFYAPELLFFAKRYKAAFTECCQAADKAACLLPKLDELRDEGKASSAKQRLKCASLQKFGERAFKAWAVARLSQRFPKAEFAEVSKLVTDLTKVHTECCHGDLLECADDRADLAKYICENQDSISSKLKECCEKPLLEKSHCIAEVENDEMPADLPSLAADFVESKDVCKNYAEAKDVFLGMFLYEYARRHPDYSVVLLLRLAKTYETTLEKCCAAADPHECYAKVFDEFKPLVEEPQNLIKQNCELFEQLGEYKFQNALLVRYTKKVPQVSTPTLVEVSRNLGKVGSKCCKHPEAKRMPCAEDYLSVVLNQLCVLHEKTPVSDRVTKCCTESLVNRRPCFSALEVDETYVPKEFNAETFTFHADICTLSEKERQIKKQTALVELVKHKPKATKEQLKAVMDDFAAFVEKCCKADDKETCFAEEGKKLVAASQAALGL
Put plainly: SPR, HSA immobilised on the chip, pH 7.3, 1:1 Langmuir fit [continued]. Here is the method: as §3, §4

Experiment [10] has as its target T1, Her2-Fc. The experiment in a line: ELISA on coated Her2-Fc; 24 h in human serum at 37 C. The method, then:
as §1, §2

The next experiment addresses T5, mouse serum albumin (mouse, UniProt P07724 25-608).
T5 construct: also called MSA
Put plainly: SPR, MSA immobilised. The method, then: as §3, §4

B1: fusion protein 217781 (designed binder, not shown: small tags and cut ends)
chain (part 1 of 2): not shown
chain (part 2 of 2): LAEAKVLALKELDKYGISNYYKNLINNAKTIEGVKALKEAIVAA
notes: also called CID 217781
With B1, the “max binding after 24 h [%]” value in the experiment with Her2-Fc [1] was determined as 97.7%; in the experiment with Her2-Fc [3], 94.1%. In addition, the Kd – broadly, the constant that tells how readily two partners part at equilibrium – was 0.63 nM in the experiment with Her2-Fc [2]; 0.61 nM in the experiment with Her2-Fc [4]; 0.36 nM in the experiment with Her2-Fc [5]; 2.05 nM in [7]; 4.1 nM in experiment [9]; 2.9 nM in the experiment with human serum albumin. This molecule registered a Kd in the experiment with Her2-Fc [10] of 0.79 nM. For the same molecule, the “increase of KD vs target [fold]” value with Her2-Fc [6] came to 1.29 fold; with Her2-Fc [8], 1.72 fold.

B2: Fusion proteins with albumin binding domain of SEQ ID NO: 5 (designed binder, not shown: small tags and cut ends)
chain: LAEAKVLALKELDKYGISNYYKNLINNAKTIEGVKALKDAIVAA
modifications: also: part of fusion protein, targeting moiety, linker, tag and order not given here
In turn, B2 showed a Kd with mouse serum albumin of under 10 nM.

B3: Fusion proteins with albumin binding domain of SEQ ID NO: 7 (designed binder, not shown: small tags and cut ends)
chain: LAEAKVLALKELDKYGISNYYKNLINNAKTIEGVEALKDAILAA
modifications: also: part of fusion protein, targeting moiety, linker, tag and order not given here
notes: also called c24
Regarding B3, in the experiment with mouse serum albumin, the Kd is under 10 nM.

B4: Fusion proteins with albumin binding domain of SEQ ID NO: 6 (designed binder, not shown: small tags and cut ends)
chain: LAEAKVLALKELDKYGISNYYKNLINNAKTIEGVKALKDEIVAA
modifications: also: part of fusion protein, targeting moiety, linker, tag and order not given here
notes: also called c20
With B4, the Kd with mouse serum albumin was under 10 nM.

B5: Fusion proteins with albumin binding domain of SEQ ID NO: 22 (designed binder, not shown: small tags and cut ends)
chain: LAEAKVLALKELDKYGISNYYKNLINNAKTIEGVKALKAQILAA
modifications: also: part of fusion protein, targeting moiety, linker, tag and order not given here
Consider B5, for which the Kd with mouse serum albumin was under 16 nM.

B6: Fusion proteins with albumin binding domain of SEQ ID NO: 24 (designed binder, not shown: small tags and cut ends)
chain: LAEAKVLALKELDKYGISNYYKNLINNAKTIEGVEALKDAIVAA
modifications: also: part of fusion protein, targeting moiety, linker, tag and order not given here
As to B6, the Kd with mouse serum albumin is under 16 nM.

B7: Fusion proteins with albumin binding domain of SEQ ID NO: 26 (designed binder, not shown: small tags and cut ends)
chain: LAEAKVLALKELDKYGISNYYKNLINNAKTIEGVEALKEAILAA
modifications: also: part of fusion protein, targeting moiety, linker, tag and order not given here
B7: the Kd with mouse serum albumin was under 10 nM.

B8: Fusion proteins with albumin binding domain of SEQ ID NO: 25 (designed binder, not shown: small tags and cut ends)
chain: LAEAKVLALKELDKYGISNYYKNLINNAKTIEGVEALKEAIVAA
modifications: also: part of fusion protein, targeting moiety, linker, tag and order not given here
Take B8: the Kd with mouse serum albumin is under 16 nM.

B9: fusion protein 218467 (designed binder, not shown: small tags and cut ends)
chain (part 1 of 2): not shown
chain (part 2 of 2): LAEAKVLAIKELDKAGISNYYFNLINNAKTVEGVKDLKAQIVAA
notes: also called CID 218467
As to B9, the “max binding after 24 h [%]” value amounted to 104% with Her2-Fc [1] and 99% with Her2-Fc [3]. Further, the Kd with Her2-Fc [2] turned out to be 0.2 nM; in the experiment with Her2-Fc [4], 0.34 nM; in the experiment with Her2-Fc [5], 0.17 nM; in [7] it was 3.81 nM; with Her2-Fc [10], 0.36 nM. Besides, the “increase of KD vs target [fold]” value was found to be 1.05 fold with Her2-Fc [6] and 1.2 fold in the experiment with Her2-Fc [8].

B10: Fusion proteins with albumin binding domain of SEQ ID NO: 13 (designed binder, not shown: small tags and cut ends)
chain: LAEAKVLAIKELDKAGISDYYFNLINNAKTIEGVKALKAQIVAA
modifications: also: part of fusion protein, targeting moiety, linker, tag and order not given here
In the experiment with mouse serum albumin, B10 registered a Kd of under 16 nM.

B11: fusion protein 218466 (designed binder, not shown: small tags and cut ends)
chain (part 1 of 2): not shown
chain (part 2 of 2): LAEAKVLALKELDKYGISNYYKNLINNAKTIEGVKALKDEIVAA
notes: also called CID 218466
Turning to B11, the “max binding after 24 h [%]” value came out at 96.6% with Her2-Fc [1] and 95.1% with Her2-Fc [3]. In addition, the Kd with Her2-Fc [2] stood at 0.23 nM; with Her2-Fc [4], 0.34 nM; with Her2-Fc [5], 0.21 nM; in experiment [7] it was 2.69 nM; in experiment [9], 4.4 nM; in the experiment with human serum albumin, 6.3 nM. Besides, binding with Her2-Fc [10] was put at a Kd of 0.32 nM. Besides, the “increase of KD vs target [fold]” value in the experiment with Her2-Fc [6] was 0.93 fold; with Her2-Fc [8] it was 1.14 fold.

B12: Fusion proteins with albumin binding domain of SEQ ID NO: 21 (designed binder, not shown: small tags and cut ends)
chain: LAEAKVLALKELDKYGISNYYKNLINNAKTIEGVKALKAAIVAA
modifications: also: part of fusion protein, targeting moiety, linker, tag and order not given here
B12 registered a Kd in the experiment with mouse serum albumin of under 16 nM.

B13: fusion protein 217787 (designed binder, not shown: small tags and cut ends)
chain (part 1 of 2): not shown
chain (part 2 of 2): LAEAKVLALKELDKYGISDFYKRLIDKAKTIEGVEALKDAILAA
notes: also called CID 217787
Turning to B13, the “max binding after 24 h [%]” value with Her2-Fc [1] is 100%; with Her2-Fc [3], 96.2%. For the same molecule, the Kd with Her2-Fc [2] was determined as 0.6 nM; in the experiment with Her2-Fc [4], 0.84 nM; with Her2-Fc [5] it was 0.42 nM; in experiment [7], 2.17 nM; in [9] it was 7.3 nM; in the experiment with human serum albumin it was 0.6 nM. The equilibrium dissociation constant (Kd) with Her2-Fc [10] turned out to be 0.53 nM. For the same molecule, the “increase of KD vs target [fold]” value in the experiment with Her2-Fc [6] came out at 0.63 fold; with Her2-Fc [8], 1.43 fold.

B14: Fusion proteins with albumin binding domain of SEQ ID NO: 23 (designed binder, not shown: small tags and cut ends)
chain: LAEAKVLALKELDKYGISNYYKNLINNAKTIEGVKALKEAIVAA
modifications: also: part of fusion protein, targeting moiety, linker, tag and order not given here
notes: also called c19
Molecule B14 returned a Kd with mouse serum albumin of under 10 nM.
